Source: patent publication US20260210939A1, “MODIFIED OLFACTORY RECEPTORS” (GIVAUDAN SA, priority 2022, published 2026)

Target: T1, OR7D4 (Homo sapiens, UniProt Q8NG98, D296E/E302K/G299D)
T1 construct: Improved functional expression of modified OR-genes containing the truncated, optimized C-terminus; expressed in transfected cells
T1 sequence (Q8NG98 with tags, fused parts or gaps D296E/G299D/E302K): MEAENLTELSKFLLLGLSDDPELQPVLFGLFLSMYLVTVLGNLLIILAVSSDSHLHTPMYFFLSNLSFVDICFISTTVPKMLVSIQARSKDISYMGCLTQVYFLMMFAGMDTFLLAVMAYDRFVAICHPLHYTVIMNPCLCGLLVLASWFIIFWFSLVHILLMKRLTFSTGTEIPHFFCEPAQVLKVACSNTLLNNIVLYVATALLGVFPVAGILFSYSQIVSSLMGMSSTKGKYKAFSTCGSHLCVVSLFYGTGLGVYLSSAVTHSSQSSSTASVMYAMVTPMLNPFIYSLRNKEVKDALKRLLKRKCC
Assay: CRE-luciferase assay, HEK cells expressing OR7D4 (wild-type / modified C-terminus)
Format: cell-based
Conditions: OR7D4 variant; for EC2 (concentration for 2-fold luciferase induction) / EC2 Fold-improvement vs. wild-type: Androstenone
Source text: Random permutations of the general C-terminal sequence RN[KR][EDQ][VMIL][KR]KA[LIV][KRH][KR][LI][LIF][KRG][KR][KR]CC (SEQ ID NO: 822) linked to OR7D4 were generated based on degenerate oligonucleotides for the C-terminal domain. For this experiment, the MfeI/XhoI fragment from pcDNA3.1(+)-mmLucy-FLAG-rho-OR7D4 containing the CMV promoter and the OR coding sequence was used to replace the EcoRI/SalI fragment of pRDVCCB-CMV-dCas9-VPH-2A-Blast (Cellecta, Inc., Mountain View, USA). Complementary degenerate oligonucleotides were then used to replace the coding region of the C-terminal domain of […] (between Bsu36I and NotI). Random clones were selected, sequenced and tested for a correct open reading frame. A total of 55 clones were obtained with the correct open reading frame of […] and a permutation of the general sequence RN[KR][EDQ][VMIL][KR]KA[LIV][KRH][KR][LI][LIF][KRG][KR][KR]CC (SEQ ID NO: 822) as the C-terminal domain. All the different clones were compared to the wild-type sequence by the functional assay in HEK cells with the ligand Androstenone tested in a dose-response test.

Substance: SEQ ID NO: 290 (RNKDVKKALRRLFGKKCC; source 1..18: note = C-terminal domain sequence)
- EC2 (concentration for 2-fold luciferase induction): 0.008 µM
- EC2 Fold-improvement vs. wild-type: 225.85

Substance: SEQ ID NO: 291 (RNKELKKAIKRLIRRKCC; source 1..18: note = C-terminal domain sequence)
- EC2 (concentration for 2-fold luciferase induction): 0.113 µM
- EC2 Fold-improvement vs. wild-type: 15.28

Substance: SEQ ID NO: 292 (RNKDVRKAVKRLLKKRCC; source 1..18: note = C-terminal domain sequence)
- EC2 (concentration for 2-fold luciferase induction): 0.018 µM
- EC2 Fold-improvement vs. wild-type: 94.88

Substance: SEQ ID NO: 293 (RNKELRKAIRRLLRRRCC; source 1..18: note = C-terminal domain sequence)
- EC2 (concentration for 2-fold luciferase induction): 0.068 µM
- EC2 Fold-improvement vs. wild-type: 25.22

Substance: SEQ ID NO: 294 (RNRDIRKALRKLFKKKCC; source 1..18: note = C-terminal domain sequence)
- EC2 (concentration for 2-fold luciferase induction): 0.008 µM
- EC2 Fold-improvement vs. wild-type: 224.95

Substance: SEQ ID NO: 295 (RNRELKKALRRLLRRRCC; source 1..18: note = C-terminal domain sequence)
- EC2 (concentration for 2-fold luciferase induction): 0.033 µM
- EC2 Fold-improvement vs. wild-type: 51.89

Substance: SEQ ID NO: 296 (RNREVKKALRRLFGKKCC; source 1..18: note = C-terminal domain sequence)
- EC2 (concentration for 2-fold luciferase induction): 0.003 µM
- EC2 Fold-improvement vs. wild-type: 525.05

Substance: SEQ ID NO: 297 (RNRDVRKALKRLLKRKCC; source 1..18: note = C-terminal domain sequence)
- EC2 (concentration for 2-fold luciferase induction): 0.005 µM
- EC2 Fold-improvement vs. wild-type: 337.39

Substance: SEQ ID NO: 298 (RNRDMRKAIRKLFGRKCC; source 1..18: note = C-terminal domain sequence)
- EC2 (concentration for 2-fold luciferase induction): 0.011 µM
- EC2 Fold-improvement vs. wild-type: 162.22

Substance: SEQ ID NO: 299 (RNRELKKAIRKLLKRKCC; source 1..18: note = C-terminal domain sequence)
- EC2 (concentration for 2-fold luciferase induction): 0.093 µM
- EC2 Fold-improvement vs. wild-type: 18.62

Substance: SEQ ID NO: 300 (RNRDIRKAVKKLFGKKCC; source 1..18: note = C-terminal domain sequence)
- EC2 (concentration for 2-fold luciferase induction): 0.020 µM
- EC2 Fold-improvement vs. wild-type: 87.76

Substance: SEQ ID NO: 301 (RNKEVKKAIRKLFGRRCC; source 1..18: note = C-terminal domain sequence)
- EC2 (concentration for 2-fold luciferase induction): 0.013 µM
- EC2 Fold-improvement vs. wild-type: 128.57

Substance: SEQ ID NO: 302 (RNREVRKAVRKLFRRKCC; source 1..18: note = C-terminal domain sequence)
- EC2 (concentration for 2-fold luciferase induction): 0.014 µM
- EC2 Fold-improvement vs. wild-type: 126.99

Substance: SEQ ID NO: 303 (RNRDMKKALKKLFRRRCC; source 1..18: note = C-terminal domain sequence)
- EC2 (concentration for 2-fold luciferase induction): 0.011 µM
- EC2 Fold-improvement vs. wild-type: 150.37

Substance: SEQ ID NO: 304 (RNRDVRKALKRLLGRRCC; source 1..18: note = C-terminal domain sequence)
- EC2 (concentration for 2-fold luciferase induction): 0.006 µM
- EC2 Fold-improvement vs. wild-type: 292.59

Substance: SEQ ID NO: 305 (RNKDLKKAVKKLFGRKCC; source 1..18: note = C-terminal domain sequence)
- Fold induction luciferase (0.1 μM Androstenone): 1.63
- Fold induction luciferase (1 μM Androstenone): 10.13
- EC2 (concentration for 2-fold luciferase induction): 0.131 µM
- EC2 Fold-improvement vs. wild-type: 13.15

Substance: SEQ ID NO: 306 (RNKDVRKAVRRLFGRRCC; source 1..18: note = C-terminal domain sequence)
- EC2 (concentration for 2-fold luciferase induction): 0.017 µM
- EC2 Fold-improvement vs. wild-type: 103.17
